This is an account of results in PMC7615342.

Data set [1] in a line: Flow cytometry, surface versus total PD-1 staining. The settings on record: glycan changed form; control: sgNT Tregs. On the technique in general: Flow cytometry measures light scatter and fluorescence of single cells or particles in a stream.
Data set [2] is described as follows: Flow cytometry, PD-1+ frequency and MFI, ex vivo Tregs. Conditions: glycan changed form; control: DMSO-treated Tregs.

B1: PD-1: sgSlc35c1 (protein)
parent chain: MWVRQVPWSFTWAVLQLSWQSGWLLEVPNGPWRSLTFYPAWLTVSEGANATFTCSLSNWSEDLMLNWNRLSPSNQTEKQAAFCNGLSQPVQDARFQIIQLPNRHDFHMNILDTRRNDSGIYLCGAISLHPKAKIEESPGAELVVTERILETSTRYPSPSPKPEGRFQGMVIGIMSALVGIPVLLLLAWALAVFCSTSMSEARGAGSKDDTLKEEPSAAPVPSVAYEELDFQGREKTPELPTACVHTEYATIVFTEGLGASAMGRRGSADGLQGPRPPRHEDGHCSWPL
Regarding B1, the localisation_or_trafficking result in data set [1] is recorded as “decreases”.

B2: PD-1: 2FF 100 μM, 6 days (protein)
parent chain: B1 parent chain
As for B2, the expression_or_secretion entry in data set [2] is “decreases”.
